# T1: GvpA of Anabaena flos-aquae (primary shell protein of the gas vesicle) (Anabaena flos-aquae) (UniProt P10397)
# T1 sequence: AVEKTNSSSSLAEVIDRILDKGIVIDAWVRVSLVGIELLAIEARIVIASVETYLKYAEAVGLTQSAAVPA
# B1: WT Ana GvpC (under pTet promoter) (protein)
# chain: MISLMAKIRQEHQSIAEKVAELSLETREFLSVTTAKRQEQAEKQAQELQAFYKDLQETSQQFLSETAQARIAQAEKQAQELLAFHKELQETSQQFLSATAQARIAQAEKQAQELLAFYQEVRETSQQFLSATAQARIAQAEKQAQELLAFHKELQETSQQFLSATADARTAQAKEQKESLLKFRQDLFVSIFG
# Target: T1, GvpA of Anabaena flos-aquae (primary shell protein of the gas vesicle) (Anabaena flos-aquae)
# Experiment: cell-based or functional assay
binder,measurement,value
B1,"nonlinear ultrasound contrast of Nissle cells expressing ASGClpXP, with against without aTc induction of WT GvpC",10 dB
